The record followed here is PMC9834252 (2023).

A word on the Kd: it is a measure of binding affinity in units of concentration.

The experiment deals with UbcH7-Ub (Homo sapiens, UniProt P68036). Briefly: ITC.
Sequence of UbcH7-Ub (P68036 whole entry): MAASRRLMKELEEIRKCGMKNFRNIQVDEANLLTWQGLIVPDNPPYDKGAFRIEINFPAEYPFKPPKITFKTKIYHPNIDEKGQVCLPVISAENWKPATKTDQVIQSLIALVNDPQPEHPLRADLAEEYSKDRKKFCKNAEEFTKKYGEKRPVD

B1: HOIL-1 (protein)
chain: MDEKTKKAEEMALSLTRAVAGGDEQVAMKCAIWLAEQRVPLSVQLKPEVSPTQDIRLWVSVEDAQMHTVTIWLTVRPDMTVASLKDMVFLDYGFPPVLQQWVIGQRLARDQETLHSHGVRQNGDSAYLYLLSARNTSLNPQELQRERQLRMLEDLGFKDLTLQPRGPLEPGPPKPGVPQEPGRGQPDAVPEPPPVGWQCPGCTFINKPTRPGCEMCCRARPEAYQVPASYQPDEEERARLAGEEEALRQYQQRKQQQQEGNYLQHVQLDQRSLVLNTEPAECPVCYSVLAPGEAVVLRECLHTFCRECLQGTIRNSQEAEVSCPFIDNTYSCSGKLLEREIKALLTPEDYQRFLDLGISIAENRSAFSYHCKTPDCKGWCFFEDDVNEFTCPVCFHVNCLLCKAIHEQMNCKEYQEDLALRAQNDVAARQTTEMLKVMLQQGEAMRCPQCQIVVQKKDGCDWIRCTVCHTEICWVTKGPRWGPGGPGDTSGGCRCRVNGIPCHPSCQNCH
The molecule B1 gave a dissociation constant Kd of 5.3 µM.
